A protein production outcome set (Wang et al. 2014)

Assay: label from the status in PepcDB records

Sequence	protein production
MGHHHHHHSHMPSYTVTVATGSQWFAGTDDYIYLSLVGSAGCSEKHLLDKPFYNDFERGAVDSYDVTVDEELGEIQLVRIEKRKYWLNDDWYLKYITLKTPHGDYIEFPCYRWITGDVEVVLRDGRAKLARDDQIHILKQHRRKELETRQKQYRWMEWNPGFPLSIDAKCHKDLPRDIQFDSEKGVDFVLNYSKAMENLFINRFMHMFQSSWNDFADFEKIFVKISNTISERVMNHWQEDLMFGYQFLNGCNPVLIRRCTELPEKLPVTTEMVECSLERQLSLEQEVQQGNIFIVDFELLDGIDANKTDPCTLQFLAAPICLLYKNLANKIVPIAIQLNQIPGDENPIFLPSDAKYDWLLAKIWVRSSDFHVHQTITHLLRTHLVSEVFGIAMYRQLPAVHPIFKLLVAHVRFTIAINTKAREQLICECGLFDKANATGGGGHVQMVQRAMKDLTYASLCFPEAIKARGMESKEDIPYYFYRDDGLLVWEAIRTFTAEVVDIYYEGDQVVEEDPELQDFVNDVYVYGMRGRKSSGFPKSVKSREQLSEYLTVVIFTASAQHAAVNFGQ	failed
MDFGTQGPQAPAELAWLRGVDAYTMGAYPQAEEEFRAAVRIDPTMADGWLGLHALRVDTTNALLRMFRNRDRFGEQRARHRRTLNSWYWLGWWVQPVLENPRDLLLAHASHWLDGRHVPELDRALAGLPPVDSDAQVRFLHACRAYLVKDWEQLVRHTDPLLGDPLLGIEAGLFSGMARVRLEMYGQAEPLLSAALMRCRSEQPQRKELRYWLARAHEGTGRSAAALPLYRAVHRVDPAFMDTSARLAAIAEGDGYDDPADLTGYAQAGAGTDGLDGLDPLFGTEERGVKVSAPEPALSAPLPPLGGPSVREKAGGPDPSLPSGPTDPALLEEALAELERMVGLEPVKRQVKALSAQLNMARLRAGQGLPVQPPKRHFVFSGPSGTGKTTVARILGRVFYALGLLGGDHLVEAQRADLVGEYLGQTAVKANELIDSALGGVLFVDEAYSLSNSGYGKGDAYGDEALQVLLKRAEDNRDHLVVILAGYPEGMDRLLGANPGLSSRFTTRVDFPSYRPLELTSIGEVLAAENGDVWDEEALDELRSIAGHVVDQGWIDELGNGRFLRTLYEKSCAYRDLRLSVYPGALTRDDLATLRLPDLMQAYGEVLSGRGPGGPSAG	failed
MQDAFEVALPLFLIMDPVGNAAASLAILREHTPSRQRAIIRRELVFALAIVLLFHFLGDALLGLLDIEQSTLRLSGGIILFIIAMKMVFPPAQENDPEAVTRDPFIVPIAVPLIAGPSLLAAVMVYARQAQAGMMGQASVLGGVLMAWGATALIMAFTPDLARILGPRAMRAMERLMGLILILMAVQMLENGIRIFVQSL	failed
MILKRAYDVTPQKISTDKVRGVRKRVLIGLKDAPNFVMRLFTVEPGGLIDRHSHPWEHEIFVLKGKLTVLKEQGEETVEEGFYIFVEPNEIHGFRNDTDSEVEFLCLIPKEGGE	not failed
MKNIKIMRLVTGEDIIGNISESQGLITIKKAFVIIPMQATPGKPVQLVLSPWQPYTDDKEIVIDDSKVITITSPKDDIIKSYESHTSEIITPSGLITET	not failed
MKLASGFLVLWLSLGGGLAQSDTSPDTEESYSDWGLRHLRGSFESVNSYFDSFLELLGGKNGVCQYRCRYGKAPMPRPGYKPQEPNGCGSYFLGLKVPESMDLGIPAMTKCCNQLDVCYDTCGANKYRCDAKFRWCLHSICSDLKRSLGFVSKVEAACDSLVDTVFNTVWTLGCRPFMNSQRAACICAEEEKEEL	failed
MSLATEGNGKVIHLTKAEFLAKVYNFEKNPEEWKYEGDKPAIVDFYADWCGPCKMVAPILDELAKEYDGQIVIYKVDTEKEQELAGAFGIRSIPSILFIPMEGKPEMAQGAMPKASFKKAIDEFLLKKEGHHHHHH	not failed
MTNMKTHAREWAALDKSACFLFCSGDNDVAQQLGHAIGDLGLLTQELPEPEQLARRLADIDPQVVFLDFTGGQADPGKLLLAADLARVLARVAPAVPRVAVGYLAQPDGAIAALRAGVSDFVDPSVSPDEVHGVVQRLVSNRRIGGGSGGEHRSVLILGARPGVGASTLAVHMAGLTQERMAQAALARQGAVAGKPARSAEVMAAQLPLSDRVGVLDLGWPIGDCLLYLNISSDFDFAEAARNLSRLDGTLLNSAMAHTASGVSALALPREVEQVRALSPNDSLLLFERLRQHYGTLVTDAGGLANPEFVAKLARASHETWLVTDQSVSALVSLAGAVQELEQFHVEKSALRLVVNRYDERYGMSAAQIAERFGLELAGTLPDRTLSLMVCTNQGRLLHEQAERDIYVRAVQTLVDRLLAGSEAPRARHNSWLANWLPGVHRLTNVVESLEHHHHHH	failed
MKSITTDELKNKLLESKPVQIVDVRTDEETAMGYIPNAKLIPMDTIPDNLNSFNKNEIYYIVCAGGVRSAKVVEYLEANGIDAVNVEGGMHAWGDEGLEIKSI	failed
MKVSILIITYNHSHFIAQAIESVLMQKVKFEYEIVIGEDSSTDNTRQILLDYQKQYSDKIRLLLPEKNLGMHRNFVNTLQACRGEYIAILEGDDYWIADDKLQKQVEFLDENPDFTICFHNVMVFHEDNQYQPYIFLHNQPTVSYIEDLLIRNFISTPSVMYRNGLVESIPTWFYEQGMGDWIFHILNAQYGKIGYIDEVMSAYRIHVQGVWSSKSRDWQLKETIRMLDTIKSNVNVRYAEIIDRAVQFYSEQLLYLVPESQEVTPVLNTSLPNYLQIKDINFIAFPDWNQPEELLYQSLYYAIKLFLTHPENNKIALFIDTTDISEEDADIYISSTLMNLMLEEELEESHKINVFLIGELDQIQWQTLLSFLKARIVLPSENLDAILASGTAIIPCLTVEQLIEFDLTFIESAKPYKLNIGCGNVRFHGWINIDIEQNYKTVDLVCDARQKLPFNDNSCDLIYNEHFLEHLTLEEGLFFLKECHRILKPEGILRIAMPSLEYVVQKYMSDDWRNQEWLNYPEYQFIKTRAEMLNIAMRWWGHQWLYDTEELHRRLTESGYINVQNFAWGKSNTPDLRNRETRVDSILICESQALK	failed
MNNTPKLKLGIVAVSRDCFPMELSENRRKAVVDAYNGEIFECLTTVENEKDMRKALKEVKSAGVNALVVYLGNFGPETPETLIAKEFDGPVMFAAAAEERGDNLVNGRGDAYCGMLNASYNLALRNINAYIPEYPVGTASDVANMINEFVPVATALIGLKNLKIISFGPRPQDFLACNAPIKQLYNLGVEIEENSELDLFASFNEHENDSRIPDVVKDMEEELGEGNKMPGILPKLAQYELTLLDWAEEHKGSREYVVFANKCWPAFQTQFGCVPCYVNSRLTARGIPVSCEVDIYGALSEYIGTCVSQDVVTLLDINNTVPKDMYESEIKSKFNYTLKDTFMGFHCGNTAACKLTSGTMKNQMIMARALEPNQEPNITRGTLEGDIVPGEITFFRLQSNADSELTAYVAEGEVLPVKTRSFGSIGVFAIPQMGRFYRHVLIENRFPHHGAVAFGHFGKAIYNLFRYLGVKEVGFNRPKEMLYKTENPFELEHHHHHH	not failed
MSFKVISTGPQAIFQDRGRFGFASAGVGTSGSFDRLSAARANHALGNDPNATVVEILLGGFEVEALHTTSIVFTGTEAEVMVRTAGGQSKNATTNTIIDVAAGERIRVEPATYGMRAYFAARGGFAVEKTLGSASTDLISHMGPRPIEPGDVIDVATDIADSQWWPKLRQLPTLWKRMPTETLTVIRGPRDKWFTQESLNNFFTQVFTVSNDSNRIGLRMHSSEPIQHRVEGELKSEGMVRGSIQIPPGGNPVVFGPDHPVTGGYPVIAVLTSRSCDRSAQLLPGDKVRFKLL	failed
MAAPMEVAVCTDSAAPMWSCIVWELHSGANLLTYRGGQAGPRGLALLNGEYLLAAQLGKNYISAWELQRKDQLQQKIMCPGPVTCLTASPNGLYVLAGVAESIHLWEVSTGNLLVILSRHYQDVSCLQFTGDSSHFISGGKDCLVLVWSLCSVLQADPSRIPAPRHVWSHHTLPITDLHCGFGGPLARVATSSLDQTVKLWEVSSGELLLSVLFDVSIMAVTMDLAEHHMFCGGSEGSIFQVDLFTWPGQRERSFHPEQDAGKVFKGHRNQVTCLSVSTDGSVLLSGSHDETVRLWDVQSKQCIRTVALKGPVTNAAILLAPVSMLSSDFRPSLPLPHFNKHLLGAEHGDEPRHGGLTLRLGLHQQGSEPSYLDRTEQLQAVLCSTMEKSVLGGQDQLRVRVTELEDEVRNLRKINRDLFDFSTRFITRPAK	failed
MSLYKLYSMQRSGNSYKVRLALALLDAPYRAVEVDILRGESRTPDFLAKNPSGQVPLLETAPGRYLAESNAILWYLAVGTSLAPDTRMDRAEALQWMFFEQHALEPNIGSAYFWLCLVKGGRDLQTHALEDWLERGYAALQVMENHLKTNDYFAAGQLTIADIALYGYTHVADQCDFDLSTFPAVNAWLRRVEQTPGFITMDWTPETIAADPTSFAAEGHHHHHH	not failed
ALKQKIIGNGEKRVVTYAPTWREDDFISVGHYHFRWHFSLKKMMGLLPEDVMLLIRPHYLVTDRIDIKGFEDRVVIDSTTDMNEIYLITDLMVTDYSSVMFDFAILKRPMLFFAYDLEYYRDDLRGFYFDYYTELPGSIVTDETHLLAEIDQLLQNNFAELDPERFNKFAKRFVSWERGTAAQQVIEKINYRRDEK	failed
MTSHHAIEVTKTVLEVADVAWTAVETYHHHHHHQDENHESTNPISDPRDRELEALRQENRRLRTLLESNLKLFETLAESAAFSHDCPSDLYARLVTMVTSRDFLARLENLRQALSNGTQNQFPFKEPTEDDVKTVEVLIEMDHQEPSWWVLVTDDMVPSNVEEQSAIDNEHYIVVNEEHVIDAVAHFLAKCIMSNPKAKNLKPEELQKLLVQEVTALSKVGKVVDIWHAGKMFYTLSTWGLAFGGLYQARGVLKIAAKGVHATSKVVLRAL	failed
MAQRIFTLILLLCSTSVFAGLFDAPGRSQFVPADQAFAFDFQQNQHDLNLTWQIKDGYYLYRKQIRITPEHAKIADVQLPQGVWHEDEFYGKSEIYRDRLTLPVTINQASAGATLTVTYQGCADAGFCYPPETKTVPLSEVVANNAAPQPVSVPQQEQPTAQLPFSALWALLIGIGIAFTPCVLPMYPLISGIVLGGKQRLSTARALLLTFIYVQGMALTYTALGLVVAAAGLQFQAALQHPYVLIGLAIVFTLLAMSMFGLFTLQLPSSLQTRLTLMSNRQQGGSPGGVFVMGAIAGLICSPCTTAPLSAILLYIAQSGNMWLGGGTLYLYALGMGLPLMLITVFGNRLLPKSGPWMEQVKTAFGFVILALPVFLLERVIGDVWGLRLWSALGVAFFGWAFITSLQAKRGWMRIVQIILLAAALVSVRPLQDWAFGATHTAQTQTHLNFTQIKTVDELNQALVEAKGKPVMLDLYADWCVACKEFEKYTFSDPQVQKALADTVLLQANVTANDAQDVALLKHLNVLGLPTILFFDGQGQEHPQARVTGFMDAETFSAHLRDRQP	failed
MAIYTVKALITDPIDEILIKTLREKGIQVDYMPEISKEELLNIIGNYDIIVVRSRTKVTKDVIEKGKKLKIIARAGIGLDNIDTEEAEKRNIKVVYAPGASTDSAVELTIGLMIAAARKMYTSMALAKSGIFKKIEGLELAGKTIGIVGFGRIGTKVGIIANAMGMKVLAYDILDIREKAEKINAKAVSLEELLKNSDVISLHVTVSKDAKPIIDYPQFELMKDNVIIVNTSRAVAVNGKALLDYIKKGKVYAYATDVFWNEPPKEEWELELLKHERVIVTTHIGAQTKEAQKRVAEMTTQNLLNAMKELGMI	not failed
KVSVNDIMVPRNEIVGIDINDDWKSIVRQLTHSPHGRIVLYRDSLDDAISMLRVREAYRLMTEKKEFTKEIMLRAADEIYFVPEGTPLSTQLVKFQRNKKKVGLVVDEYGDIQGLVTVEDILEEIVGDFT	not failed
